Consider 1 molecule from patent publication US20160009789A1 (US Dept. of Health and Human Services, published 2016).

In experiment [1] the target is T1, full-length YU2 gp120 (HIV-1 strain YU2, UniProt P35961 32-498).
T1 construct: domain: full-length gp120; also called wild-type gp120
Nature of the experiment: SPR (Biacore).

Experiment [2] deals with T1, full-length YU2 gp120. In words: SPR (Biacore), 1:1 Langmuir fit. Background: In SPR one partner is held on a chip, and binding of the other changes the refractive index at the surface.

B1: VRC03 (antibody, V domains shown)
VH: QVQLVQSGAVIKTPGSSVKISCRASGYNFRDYSIHWVRLIPDKGFEWIGWIKPLWGAVSYARQLQGRVSMTRQLSQDPDDPDWGVAYMEFSGLTPADTAEYFCVRRGSCDYCGDFPWQYWGQGTVVVVSS
VL: EIVLTQSPGILSLSPGETATLFCKASQGGNAMTWYQKRRGQVPRLLIYDTSRRASGVPDRFVGSGSGTDFFLTINKLDREDFAVYYCQQFEFFGLGSELEVH
notes: also called mAb VRC03
As usually defined, the Kd is a measure of binding affinity in units of concentration. A higher Kd goes with lower affinity. For B1, the “fold lower affinity than VRC01 and VRC02” value with full-length YU2 gp120 [1] was roughly 10 fold. In the experiment with full-length YU2 gp120 [2], this molecule returned a Kd of 0.0731 µM.
